Results from article PMC8034716.

The substances below were run against HLA-A*0201 (assay: T2 stabilization assay (BB7.2 anti-HLA-A2 staining)). Conditions: peptide-pulsed T2 cells; parent: est. 100; read off a plot.

percent of parent [%] | Substance
120 | wild type p53 65-73 peptide (…) R1A
89 | wild type p53 65-73 peptide (…) M2G
68 | wild type p53 65-73 peptide (…) A6G
76 | wild type p53 65-73 peptide (…) E4A
67 | wild type p53 65-73 peptide (…) V9G
47 | wild type p53 65-73 peptide (…) P7G
61 | wild type p53 65-73 peptide (…) P3A
100 | wild type p53 65-73 peptide (…) R1G
100 | wild type p53 65-73 peptide (…) E4G
100 | wild type p53 65-73 peptide (…) A5G
72 | wild type p53 65-73 peptide (…) P8G
89 | wild type p53 65-73 peptide (…) M2A
84 | wild type p53 65-73 peptide (…) P7A
65 | wild type p53 65-73 peptide (…) P3G
89 | wild type p53 65-73 peptide (…) P8A
110 | wild type p53 65-73 peptide (…) V9A
